{
  "source": "patent US20240115742A1",
  "about": "“FLUORINATED FIBERS FOR MULTIMODAL 1H AND 19F MRI, ULTRASOUND, FLUORESCENCE DETECTION AND CONFORMATIONAL AND TEMPERATURE DETECTION BY 19F MRS” (New York University, priority 2022, published 2024)",
  "key": {"[1]": {"test": "Curcumin binding by fluorescence spectroscopy", "conditions": "15 μM protein, 1% v/v DMSO", "experimental": "Drug Binding. Protein variants were bound to curcumin (CCM) in increasing CCM:protein ratios at 1:1 to 10:1. Protein was diluted to a final concentration of 15 μM before CCM solubilized in DMSO was added to the protein sample at a final 1% v/v DMSO. Samples were incubated on a thermomixer for 30 min at 300 rpm in the dark at 4° C. Samples were then removed and 300 μL of each sample was added to a 96-well solid black plate. Protein variants were excited at 420 nm and emission was read at 520 nm using a BioTek Synergy H1 microplate reader at RT. The baseline spectra of CCM, at 15-150 μM in 50 mM PB pH 4.0 containing 1% v/v DMSO, was subtracted from the fluorescence intensities of the protein-CCM at corresponding concentrations. Resulting normalized relative fluorescence intensities were analyzed using Specific binding kinetics in GraphPad Prism (GraphPad Software).\nCurcumin Binding. CCM was bound to Q2LTF. […] Samples were loaded onto a 96-well black plate and excited at 420 nm and emission was read at 520 nm using a BioTek Synergy H1 microplate reader at room temperature (RT). Normalized relative fluorescence intensities were calculated and analyzed in Graphpad Prism (GraphPad Software). Binding affinity was calculated using the specific binding kinetics equation."}, "[2]": {"test": "Linear regression model predictions", "conditions": "from 181.7 nm fiber diameter", "experimental": "A linear model was previously established correlating the increase in thermostability upon binding CCM, and the loss of ordered structure as measured by ATR-FTIR. Based on this model, a 14.5% loss of structure is predicted, which translates to an error of just 0.4% from a measured structure loss of 14.1%, within the root mean squared error (RMSE) of the model, which is calculated here to be 0.9%. […] While CCM-binding imposes a negative impact on the ordered structure of the coiled-coil, a loss of secondary structure measured by ATR-FTIR has been associated with a positive interaction of CCM in the hydrophobic pore, which helps stabilize the protein and increase thermostability. Thus, the fluorination of Q2LTF results in a strengthened interaction with CCM.\nBinding of CCM causes fiber thickening of Q2LTF (FIG. 34d, 44), consistent with recent analysis of supramolecular coiled-coil fibers. Fiber-thickening by CCM has been established for collagen activity as well as coiled-coil fibers and is explained by increased solvation of polar groups and burying of the hydrophobic residues leading to increased surface activity. […] While this relationship was assessed for non-fluorinated CCM fibers, the predicted fiber diameter is […] based on a 181.7 nm Q2LTF fiber diameter translating to an error of […], just outside our model's root mean squared error (RMSE) of […] (FIG. 45). […]"}, "[3]": {"conditions": "previous studies, cited from earlier work"}, "[4]": {"conditions": "measured in Q previously; cited from earlier work"}, "[5]": {"conditions": "Q, previous results; cited from earlier work"}, "[6]": {"tested_on": "type 2 mouse diabetic wound", "test": "Diabetic mouse wound model", "type": "in vivo", "conditions": "vs exosomes alone and untreated mice"}},
  "note": "Where two headings read alike, the source gives them in different places. Square brackets hold non-standard residues; d marks the D form. Ends that are not written are not given here. LTF = trifluoroleucine",
  "data": [
    {"substance": "Q2LTF: protein-engineered fluorinated coiled-coil fiber, Q2 with trifluoroleucine, SEQ ID NO: 20 (MRGSHHHHHHGSIEGRVKE[LTF][LTF]F[LTF]KKTAEQM[LTF]EE[LTF]KETNKA[LTF]HDVRH[LTF][LTF]ENQSK[LTF]; ends and bridges not checked) [Protein Q2LTF]", "values": [
      {"measurement": "Kd", "setting": "[1]", "result": "0.06 μM:μM [protein:CCM]"},
      {"measurement": "predicted CCM-thickened fiber diameter", "setting": "[2]", "result": 12.9, "unit": "μm"}
    ]},
    {"substance": "Q: rationally designed pentameric coiled-coil derived from C, SEQ ID NO: 23 (MRGSHHHHHHGSIEGRVKEITFLKNTAPQMLRELQETNAALQDVRELLRQQSKL) [reference compound]", "values": [
      {"measurement": "melting temperature", "setting": "[3]; 50 mM Na2HPO4 pH 4.0", "result": 55.3, "unit": "°C"},
      {"measurement": "melting temperature", "setting": "[3]; 50 mM Na2HPO4 pH 10.0", "result": 46.4, "unit": "°C"},
      {"measurement": "protofibril diameter", "setting": "[4]", "result": "3.5±0.5", "unit": "nm"},
      {"measurement": "α-helical secondary structure upon gelation", "setting": "[5]", "result": 52, "unit": "%"}
    ]},
    {"substance": "Q5: Q hydrogel variant from Rosetta Monte Carlo search, SEQ ID NO: 14 (MRGSHHHHHHGSIEGRVKEITFIKKTIEQIAEEMKEINKAIHDIRHALENISKK) [Protein Q5]", "values": [
      {"measurement": "diabetic wound closure", "setting": "[6]", "result": "faster time to closure"}
    ]}
  ]
}
